Experimental data taken from patent US6509447B1, “G protein chimeras and methods of screening compounds” (Glaxo Welcome Inc., priority 1997, dated 2003).

Target: T1, serotonin 5HT1A receptor (Homo sapiens, UniProt P08908)
T1 construct: expressed in transfected cells; host or cells: Saccharomyces cerevisiae strains MMY9 and MMY11, plasmid pDT-PGK-5-HT1A
T1 sequence (P08908 1-422): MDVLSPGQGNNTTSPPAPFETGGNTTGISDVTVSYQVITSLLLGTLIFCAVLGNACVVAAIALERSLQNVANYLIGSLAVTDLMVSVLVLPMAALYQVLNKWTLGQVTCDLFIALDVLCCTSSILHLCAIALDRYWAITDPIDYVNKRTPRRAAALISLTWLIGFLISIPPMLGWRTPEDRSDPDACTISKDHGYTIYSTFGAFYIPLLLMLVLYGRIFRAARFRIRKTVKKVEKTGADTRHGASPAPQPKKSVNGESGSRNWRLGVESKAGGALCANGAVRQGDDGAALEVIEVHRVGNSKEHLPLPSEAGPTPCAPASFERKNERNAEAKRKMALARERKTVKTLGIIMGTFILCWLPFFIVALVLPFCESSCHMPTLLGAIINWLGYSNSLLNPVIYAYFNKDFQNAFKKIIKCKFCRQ
Assay: Reverse halo assay for FUS1-HIS3 expression, MMY9 cells, 5-HT1A
Type: cell-based
Details: MMY9 cells with pRS314-GPA1 and 5-HT1A receptor, 40 nmol serotonin
Description: Assay for FUS1-HIS3 Expression. Reverse halo assays were carried out by growing MMY9 cells to early stationary phase (OD600≈4) in liquid SC-glucose (2%) medium lacking tryptophan and uracil. A uniform layer of cells (5×10^7) was plated to 22.5 cm by 22.5 cm bioassay dishes (Nunc) in 100 ml SC-glucose agar (1%) equilibrated to 50° C. This medium lacked tryptophan, uracil and histidine, and was supplemented with 10 mM 3-aminotriazole, and buffered to pH 7.0 with 0.1M sodium phosphate. Antibiotic discs were placed on the solidified agar, and a volume of agonist solution (1-5 μl) was applied to each disc. Plates were incubated at 30° C. for 3 days.
The four receptors were: the melatonin ML1B receptor, the serotonin 5HT1A receptor, the somatostatin SST2 receptor and the purinergic nucleotide receptor, P2Y2. […] Activation of the pheromone response pathway was monitored with two integrated reporter genes: […] allowing a growth readout in medium lacking histidine, and FUS1-lacZ allowing a β-galactosidase readout. […] Agonist-dependent activation of FUS1-HIS3 was determined by reverse halo assay in which agonists were applied to the filter discs in the arrangement shown in panel A, in quantities as follows: 3 nmol of somatostatin-14 (S-14); 40 nmol of melatonin (Mel); 3 nmol of α-factor; 100 nmol of UTP; 40 nmol of serotonin (5-HT). […]

B1: Gpa1p: endogenous yeast Gα subunit, product of the GPA1 gene (protein, UniProt P08539 2-472, looked up)
Guanine nucleotide-binding …: GCTVSTQTIGDESDPFLQNKRANDVIEQSLQLEKQRDKNEIKLLLLGAGESGKSTVLKQLKLLHQGGFSHQERLQYAQVIWADAIQSMKILIIQARKLGIQLDCDDPINNKDLFACKRILLKAKALDYINASVAGGSDFLNDYVLKYSERYETRRRVQSTGRAKAAFDEDGNISNVKSDTDRDAETVTQNEDADRNNSSRINLQDICKDLNQEGDDQMFVRKTSREIQGQNRRNLIHEDIAKAIKQLWNNDKGIKQCFARSNEFQLEGSAAYYFDNIEKFASPNYVCTDEDILKGRIKTTGITETEFNIGSSKFKVLDAGGQRSERKKWIHCFEGITAVLFVLAMSEYDQMLFEDERVNRMHESIMLFDTLLNSKWFKDTPFILFLNKIDLFEEKVKSMPIRKYFPDYQGRVGDAEAGLKYFEKIFLSLNKTNKPIYVKRTCATDTQTMKFVLSAVTDLIIQQNLKKIGII
  agonist-dependent activation of FUS1-HIS3 (halo of cell growth): did not activate FUS1-HIS3 in response to the agonist serotonin
